Measurements taken from patent US20020064869A1 (published 2002).

Key:
[1] = molecular target: Fas on TIL1200 cells (human) (UniProt P25445); experiment: cell-based or functional assay
[2] = molecular target: T1, human LTβR-Fc fusion protein (extracellular domain of lymphotoxin-β receptor fused to IgG1 Fc) (human, UniProt P36941 31-227); experiment: BIAcore, LTβR-Fc immobilized, CHO conditioned media
T1 construct: extracellular domain; Made in baculovirus-infected Sf21 cells; also called sLTβR-Fc; lymphotoxin-β receptor-Fc fusion protein; not shown: IgG1 Fc from vector pUC19-IgG1-Fc; hybridomas were counter-screened on human IgG1

[3] = molecular target: LTβR on the surface of human cancer cells (MDA-MB-231, HT-29) (human, UniProt P36941 31-435); experiment: cell-based or functional assay
[4] = molecular target: T2, TR2 on the surface of human cells (MDA-MB-231, HT-29, PBL T cells) (human, UniProt Q92956 39-283); experiment: cell-based or functional assay
T2 sequence (looked up): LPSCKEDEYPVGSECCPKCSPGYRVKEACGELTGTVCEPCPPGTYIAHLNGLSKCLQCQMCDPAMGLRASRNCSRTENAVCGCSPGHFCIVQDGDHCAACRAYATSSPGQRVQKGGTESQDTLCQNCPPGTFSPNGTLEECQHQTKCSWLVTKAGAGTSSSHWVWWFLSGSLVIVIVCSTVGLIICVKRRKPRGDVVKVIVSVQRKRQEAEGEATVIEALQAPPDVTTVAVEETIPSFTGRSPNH

Sequence of LTβR on the surface of human cancer cells (MDA-MB-231, HT-29) (P36941 31-435): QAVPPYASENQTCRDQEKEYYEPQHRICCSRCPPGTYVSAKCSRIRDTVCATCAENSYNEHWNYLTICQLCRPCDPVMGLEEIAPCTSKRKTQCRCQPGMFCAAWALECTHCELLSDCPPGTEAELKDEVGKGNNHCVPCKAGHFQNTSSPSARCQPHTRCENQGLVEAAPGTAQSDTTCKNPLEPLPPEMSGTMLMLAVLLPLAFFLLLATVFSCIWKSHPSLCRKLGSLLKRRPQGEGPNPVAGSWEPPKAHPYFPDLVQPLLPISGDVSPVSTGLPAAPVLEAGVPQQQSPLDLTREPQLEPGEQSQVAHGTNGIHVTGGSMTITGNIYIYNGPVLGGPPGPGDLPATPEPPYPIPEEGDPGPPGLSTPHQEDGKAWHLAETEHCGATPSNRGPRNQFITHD
T1 sequence (P36941 31-227 limits assumed): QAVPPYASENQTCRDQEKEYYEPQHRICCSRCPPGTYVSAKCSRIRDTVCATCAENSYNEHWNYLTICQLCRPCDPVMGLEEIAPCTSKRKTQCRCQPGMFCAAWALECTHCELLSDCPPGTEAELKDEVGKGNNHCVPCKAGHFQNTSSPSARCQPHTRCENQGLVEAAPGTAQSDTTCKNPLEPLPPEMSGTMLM
Sequence of Fas on TIL1200 cells (human) (P25445 26-335): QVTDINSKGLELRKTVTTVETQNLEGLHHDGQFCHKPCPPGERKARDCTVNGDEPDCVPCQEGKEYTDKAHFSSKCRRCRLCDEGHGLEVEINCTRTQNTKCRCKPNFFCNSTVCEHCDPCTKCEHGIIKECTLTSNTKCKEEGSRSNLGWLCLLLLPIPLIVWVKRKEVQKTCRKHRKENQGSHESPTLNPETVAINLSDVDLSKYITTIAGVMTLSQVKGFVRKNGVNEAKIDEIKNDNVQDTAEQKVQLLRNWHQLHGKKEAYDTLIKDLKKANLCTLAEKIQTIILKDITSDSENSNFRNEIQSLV

Question: “apoptosis inducing anti-Fas Mab CH-11 (antibody)” was tested. Which apoptosis of TIL1200 cells [1] did it give?
Answer: The apoptosis of TIL1200 cells was 90%.

B1: ck-beta8/AIM II fusion protein, extracellular region of AIM II (amino acids 60-240), from CHO 11 conditioned media (ligand)
chain: SQAGSQLHWRLGEMVTRLPDGPAGSWEQLIQERRSHEVNPAAHLTGANSSLTGSGGPLLWETQLGLAFLRGLSYHDGALVVTKAGYYYIYSKVQLGGVGCPLGLASTITHGLYKRTPRYPEELELLVSQQSPCGRATSSSRVWWDSSFLGGVVHLEAGEEVVVRVLDERLVRLRDGTRSYFGAFMV
notes: Two N-termini were found (40% each): SQAGS... and GSQLH; the second species lacks the first three residues SQA; also called CHO-11 AIM II; ck-beta-8-AIM2
Question: Does B1 bind [2]?
Answer: Result: binds

B2: recombinant soluble form of AIM II protein (sAIM II), Flag-tagged, amino acids 74-240 of AIM II (ligand, not shown: small tags and cut ends)
chain: DGPAGSWEQLIQERRSHEVNPAAHLTGANSSLTGSGGPLLWETQLGLAFLRGLSYHDGALVVTKAGYYYIYSKVQLGGVGCPLGLASTITHGLYKRTPRYPEELELLVSQQSPCGRATSSSRVWWDSSFLGGVVHLEAGEEVVVRVLDERLVRLRDGTRSYFGAFMV
Question: Which results are given for B2?
Answer: IC50 of cytotoxic effect on HT-29 cells in the presence of 10 u/ml IFNγ [3]: < 1 ng/mL; IC50 of cytotoxic effect on HT-29 cells in the presence of 10 u/ml IFNγ [4]: < 1 ng/mL
